Columns and labels:
[1] = test system: ischemic stroke (tMCAO) in mice; assay: Transient middle cerebral artery occlusion (tMCAO) stroke model; assay type: in vivo, mouse
Experimental: Next, the question of whether cerebral ischemia/reperfusion injury effects circulating levels of NETs was addressed. Wild-type C57BL/6 mice were subjected to 2 hours of transient middle cerebral artery occlusion (tMCAO), followed by 22 hours of reperfusion. Focal cerebral ischemia was induced by 60 or 120 min tMCAO. Mice were anesthetized with 2% isoflurane/oxygen mixture. Following a midline skin incision in the neck, the proximal common carotid artery, and the external carotid artery were ligated, and a standardized silicon rubber-coated 6.0 nylon monofilament (6021; Doccol Corp., Redlands, CA) was inserted and advanced via the right internal carotid artery to occlude the origin of the right MCA. […] The intraluminal suture was left in situ during the complete occlusion time. Then animals were re-anesthetized, and the occluding monofilament was withdrawn to allow reperfusion. In animals undergoing a sham treatment, the exact same procedure was followed except that the monofilament was only inserted three quarters of the normal distance that is necessary to occlude the MCA, after which it was immediately withdrawn. Some animals were exclusively used for laser-Doppler flowmetry (Periflux 5000, Perimed, Kings Park, NY) to monitor regional cerebral blood flow (rCBF) in the MCA territory.
Wild type (WT) and […] mice were subjected to 1 h of tMCAO and 23 h of reperfusion after which mice and brains were analyzed. Mice were killed 24 hours after initiation of tMCAO. Brains were quickly removed and cut into 2-mm-thick coronal sections using a mouse brain slice matrix. The slices were stained with 2% 2,3,5-triphenyl-tetrazolium chloride (TTC; Sigma-Aldrich, St. Louis, MO) in PBS to visualize the infarctions. Sections were photographed with a digital Nikon D70 camera and infarct areas (white) were measured blindly using Image J software (National Institutes of Health). Brain infarct volumes were measured by planimetry (FIG. 9A). Compared to the wild-type controls, DNase-1^−/− mice developed larger brain infarctions (84.10±7.24 mm^3 versus 58.50±4.04 mm^3, p<0.05, FIG. 9A).
Neurological function was assessed, blinded for the mouse genotype 24 h, after initiation of tMCAO, using the modified Bederson score (Bederson et al., Stroke 1986 17:472-6). This test determines global neurological function according to the following scoring system: 0, no deficit; 1, forelimb flexion; 2, decreased resistance to lateral push; 3, unidirectional circling; 4, longitudinal spinning; 5, no movement. The grip test was performed as described (Moran et al., PNAS 1995 92:5341-5). A mouse was placed on a wooden bar (3 mm in diameter, 40 cm long) that is attached to two vertical supports 40 cm above a flat surface. When placing the mouse at a point midway between the supports, the experiment was rated according to the following system: 0, falls off; 1, hangs onto bar by two forepaws; 2, as for 1, but attempts to climb onto bar; 3, hangs onto bar by two forepaws plus one or both hindpaws; 4, hangs onto bar by all four paws plus tail wrapped around bar; 5, escape (where mouse was able to work its way to one of the supports). […] The turns in one versus the other direction were recorded from ten trials for each test. Turning movements that were not part of a rearing movement were not scored. […]

[2] = test system: flow restriction-induced DVT in mice; assay: IVC stenosis (flow restriction) model of deep vein thrombosis; assay type: in vivo, mouse
Source text: Mice were anesthetized by isoflurane-oxygen mixture and placed in a supine position. After laparotomy, intestines were exteriorized and warm sterile saline was applied during the whole procedure to prevent drying. After gentle separation from aorta, IVC was ligated over a 30 G needle by a 7.0 polypropylene suture immediately below the renal veins (towards the tail) and then the needle was removed. The needle was placed outside the vessel so that piercing or any other injury to the IVC wall was completely avoided. This procedure allows for standardized flow restriction without endothelial injury. All visible side branches (usually 1 or 2) were also ligated. After surgery, peritoneum and skin were closed by monofilament absorbable suture and 6.0 silk, respectively. Mice were euthanized after 6 h or 48 h and thrombi developed in the IVC below the suture (towards the tail) were taken for analysis.
All mice were treated with DNaseI (Pulmozyme®) immediately after surgery and mice with 48 h IVC stenosis received 3 additional injections every 12 hours. The dose of every injection was 50 μg i.p. (50 μl of non-diluted Pulmozyme) and 10 μg i.v. (in 50 μl of sterile saline) in retro-orbital plexus. Control mice were injected with the same volume of DNase buffer (8.77 mg/ml sodium chloride and 0.15 mg/ml calcium chloride in sterile water for injections).
Flow restriction model. The murine model of DVT was performed as described. […] A suture was placed on the IVC just below the renal veins over a spacer (diameter of 0.26 mm) and then the spacer was removed. […] All visible IVC side branches were also sutured. Thereafter, peritoneum and skin were closed, mice were sacrificed after 1-48 h and thrombi formed in the IVC were harvested. Sham-operated mice were opened and IVC sutured similarly to the experimental mice, but the suture was removed immediately after ligation.
Histone infusion. A mixture of all histones isolated from calf thymus (Worthington, Lakewood, NJ, USA) was dissolved in sterile saline and infused intravenously in mice immediately before IVC stenosis application. The dose used (10 mg kg^−1) is known to produce a 25% decrease in platelet count 10 min after infusion. The infused solution of histone mix was essentially endotoxin-free (<0.025 EU mL^−1; measured using the endotoxin detection kit [Lonza, Walkersville, MD, USA] according to the manufacturer's instructions). Control mice received infusion of sterile saline. Mice were sacrificed 1 h after surgery and thrombus formation was examined.
DNase 1 infusion. DNase 1 (PULMOZYME®, Genentech, San Francisco, CA, USA) was diluted in sterile saline and injected immediately after surgery (50 μg intraperitoneally and 10 μg intravenously). In experiments with 48 h IVC stenosis, injections were repeated three more times after every 12 h. Control mice were injected with the PULMOZYME™ vehicle buffer (8.77 mg mL^−1 sodium chloride and 0.15 mg mL^−1 calcium chloride) diluted in sterile saline.

[3] = rhDNase-1 vs vehicle, 24 h, p<0.05
[4] = 6 h and 48 h IVC stenosis, vs vehicle

B1: rhDNase-1: recombinant human DNase-1 (Dornase alpha, Pulmozyme, Genentech) (protein, UniProt P24855 23-282, looked up)
Deoxyribonuclease-1: LKIAAFNIQTFGETKMSNATLVSYIVQILSRYDIALVQEVRDSHLTAVGKLLDNLNQDAPDTYHYVVSEPLGRNSYKERYLFVYRPDQVSAVDSYYYDDGCEPCGNDTFNREPAIVRFFSRFTEVREFAIVPLHAAPGDAVAEIDALYDVYLDVQEKWGLEDVMLMGDFNAGCSYVRPSQWSSIRLWTSPTFQWLIPDSADTTATPTHCAYDRIVVAGMLLRGAVVPDSALPFNFQAAYGLSDQLAQAISDHYPVEVMLK
brain infarct volume ([1]; 1 h tMCAO, 23 h reperfusion, 50 μg i.p. 15 min before surgery and 12 h later, 10 μg i.v. 5 min before reperfusion, vehicle 81.45±9.08): 50.67±8.74 mm^3 | infarct size smaller than vehicle ([1]; 1 h tMCAO, 23 h reperfusion, rhDNase-1 vs vehicle): approximately 40% | Bederson test score [1, 3]: significantly better | corner test result [1, 3]: significantly better | grip test score [1, 3]: significantly better | protection from DVT (thrombus incidence) ([2]; 6 h and 48 h IVC stenosis): protected mice from flow restriction-induced DVT | thrombus length [2, 4]: significantly reduced | thrombus weight [2, 4]: significantly reduced | protection from DVT (thrombus incidence) ([2]; 6 h and 48 h IVC stenosis, listed as DNaseI): greatly reduces the incidence of thrombosis | mice that developed a thrombus ([2]; 48 h IVC stenosis, 50 μg i.p. and 10 μg i.v. every 12 h, 2 of 12, vehicle 5 of 8): 17%
